{"source": "paper PMC7846560", "about": "“A promiscuous ancestral enzyme´s structure unveils protein variable regions of the highly diverse metallo-β-lactamase family” (Communications Biology, 2021)", "proteins": {"B1": {"name": "Igni18 (Ignicoccus hospitalis KIN4/I) (protein)", "chain": "MTTVKLTYFGHSAFHVEVDGVGIAIDPWITNPLSKTTLEDYLKNFKTDLVVITHAHEDHIGDALEIMRRTGAKFFSIHEIYVDLTQKGFQGIGANIGGPAKLDDVAPGLGIALTPATHSSYDKGVPTGAIIFKDGKALVYHAGDTGLFAEMQFIGELYAPKVALLPIGGHYTMDIEQALLATKLLRPEVVVPMHYNTFPPIRADPNEFKQKVESAGLAKVRVMEPGETVTFEF", "notes": "homotrimer; 233 protein residues in the structure"}}, "substrate": "O=[N+]([O-])c1ccc(OP(=O)(O)Oc2ccc([N+](=O)[O-])cc2)cc1", "experiment": "purified protein", "type": "biochemical, Ignicoccus hospitalis", "conditions": "pH 8, 90 °C, Ni2+ is the required metal (optimal metal conditions)", "data": [{"protein": "B1", "values": [{"measurement": "Km", "value": 2.5, "unit": "µM"}, {"measurement": "kcat", "value": "6.72e-05", "unit": "s⁻¹"}]}]}
